Kd and fold reduction of binding against WT RNase H data for two substances are collected here from publication PMC4917968.

For assay [1], the target named is Full-length mouse eRF1 (mouse) (UniProt Q8BWY3). Put plainly: ITC; 22 °C, MicroCal VP-ITC; 20 mM HEPES pH 7.5, 150 mM NaCl, 5 mM TCEP; injectant protein 220-300 μM into a cell with 13-20 μM protein; single-site model.
Assay [2] has the same target. Put plainly: ITC; competition: RNase H (WT or mutant) titrated to the preformed eRF1/eRF3 complex; apparent Kd; 22 °C, 20 mM HEPES pH 7.5, 150 mM NaCl, 5 mM TCEP; single-site model. (In ITC the heat of successive injections is recorded.)

As to “Isolated RNase H domain of MoMLV RT (aa 500–671) (domain or fragment)”, the Kd was determined as 4.18 µM in assay [1] and 5.6 µM in assay [2].
On to “RNase H mutant F588A (isolated RNase H domain of MoMLV RT) (domain or fragment)”, for which the fold reduction of binding against WT RNase H in assay [1] is 10 fold.
